Tests used:
[1] = biological target: full-length SNAP-tagged NKG2D on HEK293 TRex cells (co-expressed with DAP10) (human) (UniProt P26718); experiment: FRET or BRET
[2] = biological target: T1, MICA ECD (24 to 297), not dye-labeled (human, UniProt Q29983 24-297); experiment: SPR
T1 sequence: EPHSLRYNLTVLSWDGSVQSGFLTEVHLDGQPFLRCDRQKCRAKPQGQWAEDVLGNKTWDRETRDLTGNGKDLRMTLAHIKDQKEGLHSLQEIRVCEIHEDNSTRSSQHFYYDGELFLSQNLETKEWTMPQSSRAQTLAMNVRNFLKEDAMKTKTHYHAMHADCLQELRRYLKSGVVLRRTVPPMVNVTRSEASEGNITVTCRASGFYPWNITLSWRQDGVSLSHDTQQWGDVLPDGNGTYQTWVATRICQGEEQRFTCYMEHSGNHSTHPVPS

[3] = biological target: T2, Alexa Fluor 647-labeled MICB ECD (24 to 297) (human, UniProt Q29980 24-297, AF647 label on Cys213); experiment: FRET or BRET
T2 sequence: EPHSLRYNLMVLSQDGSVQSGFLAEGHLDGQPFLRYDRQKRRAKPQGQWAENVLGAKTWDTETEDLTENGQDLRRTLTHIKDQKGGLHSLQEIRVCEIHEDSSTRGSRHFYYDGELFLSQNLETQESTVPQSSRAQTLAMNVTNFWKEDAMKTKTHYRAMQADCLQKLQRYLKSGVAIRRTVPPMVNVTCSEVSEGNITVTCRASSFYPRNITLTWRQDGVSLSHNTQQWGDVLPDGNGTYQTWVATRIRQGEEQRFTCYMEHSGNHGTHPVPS

[4] = biological target: T1, MICA ECD (24 to 297), not dye-labeled; experiment: SEC-MALS

Alexa Fluor 647-labeled ULBP6 ECD (29 to 207) (from UniProt Q5VY80 29-207) (ligand)
Kd [1]: 2.5 nM

B1: biotinylated and detagged NKG2D ECD (90 to 216) (domain or fragment)
chain: PLTESYCGPCPKNWICYKNNCYQFFDESKNWYESQASCMSQNASLLKVYSKEDQDLLKLVKSYHWMGLVHIPTNGSWQWEDGSILSPNLLTIIEMQKGDCALYASSFKGYIENCSTPNTYICMQRTV
modifications: biotin on the Avi tag
Kd [2]: 48 nM

B2: full-length SNAP-tagged NKG2D on HEK293 TRex cells (co-expressed with DAP10) (receptor)
chain: MGWIRGRRSRHSWEMSEFHNYNLDLKKSDFSTRWQKQRCPVVKSKCRENASPFFFCCFIAVAMGIRFIIMVTIWSAVFLNSLFNQEVQIPLTESYCGPCPKNWICYKNNCYQFFDESKNWYESQASCMSQNASLLKVYSKEDQDLLKLVKSYHWMGLVHIPTNGSWQWEDGSILSPNLLTIIEMQKGDCALYASSFKGYIENCSTPNTYICMQRTV
modifications: terbium label on the SNAP-tag
Kd [3]: 700 nM

B3: hNKG2D 90-216, S117E, I173S mutant (domain or fragment)
chain: MGPLTESYCGPCPKNWICYKNNCYQFFDEEKNWYESQASCMSQNASLLKVYSKEDQDLLKLVKSYHWMGLVHIPTNGSWQWEDGSSLSPNLLTIIEMQKGDCALYASSFKGYIENCSTPNTYICMQRTV
binding result [4]: binds

— paper PMC10160951 (Proceedings of the National Academy of Sciences of the …, 2023)
